Source: paper PMC3156286 (Journal of molecular biology, 2011)

Target: the molecule itself
Experiment: SEC

B1: full length Nhp2p (natural protein, S. cerevisiae, UniProt P32495 1-156, looked up)
chain: MGKDNKEHKESKESKTVDNYEARMPAVLPFAKPLASKKLNKKVLKTVKKASKAKNVKRGVKEVVKALRKGEKGLVVIAGDISPADVISHIPVLCEDHSVPYIFIPSKQDLGAAGATKRPTSVVFIVPGSNKKKDGKNKEEEYKESFNEVVKEVQAL
How did the “stoichiometry N” value turn out when B1 was run?
The value was 2.
